Data from patent publication US20150203577A1 (Chugai, published 2015).
Residue numbers refer to the chain shown, from its start. In names and notes the source's numbering stands. Read-outs that look alike come from different tables or passages of the source. One block for each binder: values may come before it.

Experiments:
mouse FcγRII [1] = molecular target: T1, mouse FcγRII (mouse, UniProt P08101 30-210); assay: SPR Biacore T200, KD ratio
T1 construct: also called mFcγRII; mFcgRII
T1 sequence: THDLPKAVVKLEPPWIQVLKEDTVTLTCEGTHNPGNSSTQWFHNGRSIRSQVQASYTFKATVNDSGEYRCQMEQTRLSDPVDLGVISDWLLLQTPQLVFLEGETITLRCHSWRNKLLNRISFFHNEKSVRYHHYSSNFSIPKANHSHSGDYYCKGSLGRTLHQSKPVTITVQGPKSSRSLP

mouse FcγRII [2] = molecular target: T1, mouse FcγRII; assay: SPR Biacore T200, KD ratio; upper end tied to MB397 by Table 8
mouse FcγRII [3] = molecular target: T1, mouse FcγRII; assay: told of the L104-mk1 form; SPR was run on the MRAL-k0 form
[4] = molecular target: T2, mouse FcγRII extracellular domain, C-terminally His-tagged (mouse, UniProt P08101 30-210); assay: SPR Biacore T200
T2 construct: the whole entry is named; also called mFcγRII; mFcgRII
T2 sequence: T1 sequence

[5] = molecular target: T3, mouse FcγRIII extracellular domain, C-terminally His-tagged (mouse, UniProt P08508 31-215); assay: SPR Biacore T200, KD ratio
T3 construct: the whole entry is named; also called mFcγRIII; mFcgRIII
T3 chain: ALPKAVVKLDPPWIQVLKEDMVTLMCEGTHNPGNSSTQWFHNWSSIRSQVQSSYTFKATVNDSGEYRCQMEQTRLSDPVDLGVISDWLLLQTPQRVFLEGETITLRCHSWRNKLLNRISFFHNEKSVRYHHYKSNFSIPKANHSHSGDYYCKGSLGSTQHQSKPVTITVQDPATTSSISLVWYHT

[6] = molecular target: T4, mouse FcγRIII extracellular domain, C-terminal His tag (mouse, UniProt P08508 31-215); assay: SPR (Biacore T200)
T4 construct: Whole entry named; also called mFcγRIII; mFcgRIII
T4 chain: T3 chain

[7] = molecular target: T5, mouse FcγRII extracellular domain, C-terminal His tag (mouse, UniProt P08101 30-210); assay: SPR (Biacore T200); KD of H237-mIgG1/MRAL-k0 / KD of variant
T5 construct: Whole entry named; also called mFcγRII; mFcgRII
T5 sequence: T1 sequence

mouse FcγRII [8] = molecular target: T1, mouse FcγRII; assay: SPR Biacore T200, KD ratio; upper end tied to MB682 by Table 20
mouse FcγRII [9] = molecular target: T1, mouse FcγRII; assay: SPR Biacore T200, KD ratio; lower end tied to MB425 by Table 8
mouse FcγRIII [10] = molecular target: T6, mouse FcγRIII (mouse, UniProt P08508 31-215); assay: SPR Biacore T200
T6 construct: also called mFcγRIII; mFcgRIII
T6 chain: T3 chain
Description: (§1) The antibody H chain variable region used was the variable region H237 (SEQ ID NO: 1) of the H chain VH3-IgG1 of the anti-IL-6 receptor antibody Fv4-IgG1 described in WO2009/125825. The antibody L chain commonly used was the L chain MRAL-k0 (SEQ ID NO: 2) of the anti-IL-6 receptor antibody tocilizumab. The aforementioned 11 variants were used as templates to introduce the alteration. These variants were expressed and purified by the method of Reference Example 1 and evaluated for their binding to mFcγRII and mFcγRIII by the method of Reference Example 2 using Biacore T200.
Each altered antibody was analyzed for its interaction with each Fcγ receptor prepared above using Biacore T100 (GE Healthcare Japan Corp.), Biacore T200 (GE Healthcare Japan Corp.), Biacore A100, or Biacore 4000. The running buffer used was HBS-EP+ (GE Healthcare Japan Corp.). The assay temperature was set to 25° C. […]
In order to calculate the KD value of each altered antibody for FcγR, kinetic analysis was conducted according to the following method: first, the antibody of interest was captured onto any of these chips and allowed to interact with mFcγR diluted with a running buffer. […] From these values, the dissociation constant KD (mol/L) was calculated.

mouse FcγRII [11] = molecular target: T1, mouse FcγRII; assay: SPR Biacore T200, KD ratio; lower end tied to MB684 by Table 20
[12] = molecular target: T2, mouse FcγRII extracellular domain, …; assay: SPR Biacore T200, KD ratio
Description: (§2) As for alterations, “X000Z” represents the substitution of amino acid X at EU numbering position 000 by amino acid Z. In this context, X and Z represent the one-letter codes of the amino acid residues.
(§3) Each altered antibody was analyzed for its interaction with each Fcγ receptor prepared above using Biacore T100 (GE Healthcare Japan Corp.), Biacore T200 (GE Healthcare Japan Corp.), Biacore A100, or Biacore 4000. The running buffer used was HBS-EP+ (GE Healthcare Japan Corp.). The assay temperature was set to 25° C. The sensor chips used were chips prepared by immobilizing Protein L (ACTIGEN or BioVision) onto Series S Sensor Chip CM5 (GE Healthcare Japan Corp.) or Series S Sensor Chip CM4 (GE Healthcare Japan Corp.) by the amine coupling method.
(§4) In order to calculate the KD value of each altered antibody for FcγR, kinetic analysis was conducted according to the following method: first, the antibody of interest was captured onto any of these chips and allowed to interact with mFcγR diluted with a running buffer. For the obtained sensorgram, the assay results were globally fit into the 1:1 Langmuir binding model using Biacore Evaluation Software to calculate an association rate constant ka (L/mol/s) and a dissociation rate constant kd (1/s). From these values, the dissociation constant KD (mol/L) was calculated.

[13] = molecular target: T3, mouse FcγRIII extracellular domain, …; assay: SPR Biacore T200, KD ratio
Description: as §2, §3, §4

[14] = molecular target: T2, mouse FcγRII extracellular domain, …; assay: SPR Biacore T200, antibody captured on Protein L
Description: as §2, §3, §4

[15] = molecular target: T3, mouse FcγRIII extracellular domain, …; assay: SPR Biacore T200, antibody captured on Protein L
Description: as §2, §3, §4

mouse FcγRII [16] = molecular target: T1, mouse FcγRII; assay: told of the L104-mk1 form; SPR (Table 28) was run on the MRAL-k0 form
mouse FcγRIII [17] = molecular target: T6, mouse FcγRIII; assay: told of the L104-mk1 form; SPR was run on the MRAL-k0 form
[18] = molecular target: T4, mouse FcγRIII extracellular domain, …; assay: SPR (Biacore T200)
Description: as §1, with “7” for “11”, “substitute the amino acids at the alteration sites by the amino acids before” for “introduce”
as §3

[19] = molecular target: T5, mouse FcγRII extracellular domain, …; assay: SPR (Biacore T200); KD of H237-mIgG1/MRAL-k0 / KD of variant; remark: listed apart in the source
Description: as §1, with “7” for “11”, “substitute the amino acids at the alteration sites by the amino acids before” for “introduce”
as §3

B1: H237-MB397/MRAL-k0 (antibody, mouse IgG1, kappa)
heavy: QVQLQESGPGLVKPSETLSLTCAVSGHSISHDHAWSWVRQPPGEGLEWIGFISYSGITNYNPSLQGRVTISRDNSKNTLYLQMNSLRAEDTAVYYCARSLARTTAMDYWGEGTLVTVSSAKTTPPSVYPLAPGSAAQTNSMVTLGCLVKGYFPEPVTVTWNSGSLSSGVHTFPAVLQSDLYTLSSSVTVPSSTWPSETVTCNVAHPASSTKVDKKIVPRDCGCKPCICETYEVEDVFIFPPKPKDVLTITLTPKVTCVVVDISKDDPEVQFSWFVDDVEVHTAQTQPREEQFNSTFRSVSELPIMHQDWLNGKEFKCRVNSAAFPAPIEKTISKTKGRPKAPQVYTIPPPKEQMAKDKVSLTCMITDFFPEDITVEWQWNGQPAENYKNTQPIMDTDGSYFVYSKLNVQKSNWEAGNTFTCSVLHEGLHNHHTEKSLSHSPGK
light: not shown
notes: mIgG1 with T230E/V231T/P232Y/S238E/S239D; also called template T4; copies: 2 + 2
relative mFcγRII-binding activity (H237-mIgG1/MRAL-k0 = 1) (mouse FcγRII [1]): > 500 fold
relative mFcγRII-binding activity (H237-mIgG1/MRAL-k0 = 1) (mouse FcγRII [2]): 600 fold

B2: H237-MB367/L104-mk1 (antibody, mouse IgG1, kappa)
heavy: B1 heavy with T230A, Y231N
light: DIQMTQSPSSLSASVGDSVTITCQASTDISSHLNWYQQKPGKAPELLIYYGSHLLSGVPSRFSGSGSGTDFTFTISSLEAEDAATYYCGQGNRLPYTFGQGTKVEIERADAAPTVSIFPPSSEQLTSGGASVVCFLNNFYPKDINVKWKIDGSERQNGVLNSWTDQDSKDSTYSMSSTLTLTKDEYERHNSYTCEATHKTSTSPIVKSFNRNEC
notes: the text speaks of it for this form; copies: 2 + 2
binding result (mouse FcγRII [3]): binds

B5: MB682 (antibody)
heavy: B1 heavy with T230P, Y231K
light: not shown
notes: copies: 2 + 2
relative mFcγRII-binding activity (H237-mIgG1/MRAL-k0 = 1) (mouse FcγRII [8]): 5 to 15 fold

B6: H237-MB425/MRAL-k0 (antibody, mouse IgG1, kappa)
heavy: B1 heavy with E229I, T230P, Y231A
light: not shown
notes: mIgG1 with T230I/V231P/P232A/S238E/S239D; also called template T7; copies: 2 + 2
relative mFcγRII-binding activity (H237-mIgG1/MRAL-k0 = 1) (mouse FcγRII [9]): 200 fold

B8: MB684 (antibody)
heavy: B1 heavy with E229Q, T230P, Y231K
light: not shown
notes: copies: 2 + 2
relative mFcγRII-binding activity (H237-mIgG1/MRAL-k0 = 1) (mouse FcγRII [11]): 5 to 15 fold

B9: H237-mF46/MRAL-k0 (antibody, mouse IgG1, kappa)
heavy: B1 heavy with E229T, T230V, Y231P, E234S, A323D
light: not shown
notes: S239D/A327D (EU) against H237-mIgG1; copies: 2 + 2
relative mFcγRII-binding activity (mIgG1 = 1) [12]: 158 fold
relative mFcγRIII-binding activity (mIgG1 = 1) [13]: 44 fold
Kd [14]: 1.33 nM
Kd [15]: 6.4 nM

B10: H237-MB477/L104-mk1 (antibody, mouse IgG1, kappa)
heavy: B1 heavy with T230P, Y231N, S263A
light: B2 light
notes: the text gives the rounded value for this form; copies: 2 + 2
relative mFcγRII-binding activity (H237-mIgG1/L104-mk1 = 1) (mouse FcγRII [16]): ~200 fold

B14: H237-MB367/MRAL-k0 (antibody, mouse IgG1, kappa)
heavy: B1 heavy with T230A, Y231N
light: not shown
notes: T230E/V231A/P232N/S238E/S239D (EU) against H237-mIgG1; copies: 2 + 2
relative mFcγRII-binding activity (mIgG1 = 1) [12]: 159 fold
relative mFcγRIII-binding activity (mIgG1 = 1) [13]: 6.2 fold
Kd [14]: 1.32 nM
Kd [15]: 45.4 nM

B15: H237-MB492/L104-mk1 (antibody, mouse IgG1, kappa)
heavy: B1 heavy with T230P, Y231N, N320D
light: B2 light
notes: as for B10
relative mFcγRII-binding activity (H237-mIgG1/L104-mk1 = 1) (mouse FcγRII [16]): ~620 fold

The next lines start with the values.

binding result [4]: no binding
relative mFcγRIII-binding activity (mIgG1 = 1) [5]: 0.02 fold
B3: H237-MB656/MRAL-k0 (antibody, mouse IgG1, kappa)
heavy: B1 heavy with E229I, T230P, Y231A, D235F
light: not shown
notes: copies: 2 + 2

binding result [6]: no binding
relative mFcγRII-binding activity (mIgG1 = 1) [7]: 0.23 fold
B4: H237-MB881/MRAL-k0 (antibody, mouse IgG1, kappa)
heavy: B1 heavy with T230V, Y231N, V233E, D235L
light: not shown
notes: copies: 2 + 2

binding result (mouse FcγRIII [10]): no binding
B7: H237-MB697/MRAL-k0 (antibody, mouse IgG1, kappa)
heavy: B1 heavy with T230P, Y231P, D235F
light: not shown
notes: copies: 2 + 2

binding result (mouse FcγRII [3]): binds
binding result (mouse FcγRIII [17]): binds
B11: H237-mF46/L104-mk1 (antibody, mouse IgG1, kappa)
heavy: B1 heavy with E229T, T230V, Y231P, E234S, A323D
light: B2 light
notes: as for B2

binding result [18]: no binding
relative mFcγRII-binding activity (mIgG1 = 1) [19]: 0.187 fold
B12: H237-MB701/MRAL-k0 (antibody, mouse IgG1, kappa)
heavy: B1 heavy with T230V, Y231P, V233E, D235F
light: not shown
notes: copies: 2 + 2

binding result [18]: no binding
relative mFcγRII-binding activity (mIgG1 = 1) [19]: 0.217 fold
B13: H237-MB697/MRAL-k0 (antibody, mouse IgG1, kappa)
heavy: B1 heavy with T230P, Y231P, D235F
light: not shown
notes: copies: 2 + 2

binding result (mouse FcγRIII [10]): no binding
B16: H237-MB701/MRAL-k0 (antibody, mouse IgG1, kappa)
heavy: B1 heavy with T230V, Y231P, V233E, D235F
light: not shown
notes: copies: 2 + 2
